Measurements from IntAct's records for PubMed 24290140.

Biological target: Fhl1, P97447-2
Sequence (P97447 other isoform, or with tags, fused parts or gaps): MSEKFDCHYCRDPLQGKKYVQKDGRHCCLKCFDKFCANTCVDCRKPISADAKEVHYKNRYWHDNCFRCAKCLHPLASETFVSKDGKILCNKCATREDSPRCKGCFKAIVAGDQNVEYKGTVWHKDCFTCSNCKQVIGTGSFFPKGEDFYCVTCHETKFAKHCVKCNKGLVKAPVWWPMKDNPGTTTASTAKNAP

Chain of Recombining binding protein suppressor of hairless (Mus musculus), P31266 F261R (P31266 whole entry F261R): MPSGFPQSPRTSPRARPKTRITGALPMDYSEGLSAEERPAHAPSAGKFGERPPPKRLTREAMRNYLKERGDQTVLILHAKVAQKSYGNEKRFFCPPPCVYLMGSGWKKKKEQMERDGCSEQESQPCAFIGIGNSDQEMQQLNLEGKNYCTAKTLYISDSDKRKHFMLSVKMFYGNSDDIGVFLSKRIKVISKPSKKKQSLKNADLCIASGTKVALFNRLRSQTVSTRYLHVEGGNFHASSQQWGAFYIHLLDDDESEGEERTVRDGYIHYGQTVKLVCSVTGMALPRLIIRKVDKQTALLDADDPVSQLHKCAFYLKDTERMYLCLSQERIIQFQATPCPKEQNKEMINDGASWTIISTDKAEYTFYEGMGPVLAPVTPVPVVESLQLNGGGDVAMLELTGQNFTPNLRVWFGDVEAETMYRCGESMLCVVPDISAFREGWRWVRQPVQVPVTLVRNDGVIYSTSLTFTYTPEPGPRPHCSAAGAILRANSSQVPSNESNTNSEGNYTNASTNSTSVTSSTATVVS
Chain of Recombining binding protein suppressor of hairless (Mus musculus), P31266 A284R (P31266 whole entry A284R): as the sequence (P31266 whole entry F261R) above, with R261F, A284R counted along it

Substance	effect of a mutation on the interaction
Recombining binding protein suppressor of hairless (Mus musculus), P31266 A284R	decreasing interaction strength
Recombining binding protein suppressor of hairless (Mus musculus), P31266 F261R	decreasing interaction strength
